US20230340114A1 (IMMUNE ONC THERAPEUTICS, published 2023)

Tests used:
[1] = biological target: T1, human LILRB4 expressed on cells (human, UniProt Q8NHJ6 22-448); assay: FACS, CHO-K1 cells stably expressing human LILRB4; H7K3 in formulation buffer after 4 weeks at 40°C
T1 construct: whole, on cells; also called ILT3; CD85k
Method: (§1) EC50 FACS: Stable CHO-K1 cells expressing either human LILRB4 or flag-tagged cynomolgus monkey LILRB4 were used to determine binding capacity of stability samples of H7K3 antibody. CHO-K1 cells (1×10⁵) were stained with serially titrated stability samples followed by secondary staining with fluorescent-conjugated anti-human IgG (Biolegend). Geometric mean fluorescence (MFI) was measured and EC₅₀ were calculated by Prism.
(§2) The inventors then assessed the stability of the antibody H7K3 at 40° C. in PBS or a formulation buffer, the results of which are summarized in the Tables 2 and 3.

[2] = biological target: T2, flag-tagged cynomolgus monkey LILRB4 expressed on CHO-K1 cells (cynomolgus monkey); assay: FACS, CHO-K1 cells stably expressing flag-tagged cyno LILRB4; H7K3 in formulation buffer after 4 weeks at 40°C
T2 construct: whole, on cells; also called cyno LILRB4
Method: as §1, §2

[3] = biological target: T2, flag-tagged cynomolgus monkey LILRB4 …; assay: FACS, CHO-K1 cells stably expressing flag-tagged cyno LILRB4; H7K3 in PBS after 4 weeks at 40°C
Method: as §1, §2

[4] = biological target: T2, flag-tagged cynomolgus monkey LILRB4 …; assay: FACS, CHO-K1 cells stably expressing flag-tagged cyno LILRB4; H7K3 reference row of the formulation buffer stability table
Method: as §1

[5] = biological target: T2, flag-tagged cynomolgus monkey LILRB4 …; assay: FACS, CHO-stable cells expressing cyno LILRB4
[6] = biological target: T1, human LILRB4 expressed on cells; assay: FACS, CHO-K1 cells stably expressing human LILRB4; H7K3 in PBS after 4 weeks at 40°C
Method: as §1, §2

[7] = biological target: T2, flag-tagged cynomolgus monkey LILRB4 …; assay: FACS, CHO-K1 cells stably expressing flag-tagged cyno LILRB4; H7K3 reference row of the PBS stability table
Method: as §1

[8] = biological target: T1, human LILRB4 expressed on cells; assay: FACS, CHO-K1 cells stably expressing human LILRB4; H7K3 in PBS after 2 weeks at 40°C
Method: as §1, §2

[9] = biological target: T1, human LILRB4 expressed on cells; assay: FACS, CHO-K1 cells stably expressing human LILRB4; H7K3 reference row of the PBS stability table
Method: as §1, §2

[10] = biological target: T2, flag-tagged cynomolgus monkey LILRB4 …; assay: FACS, CHO-K1 cells stably expressing flag-tagged cyno LILRB4; H7K3 in formulation buffer, T0
Method: as §1, §2

[11] = biological target: T2, flag-tagged cynomolgus monkey LILRB4 …; assay: FACS, CHO-K1 cells stably expressing flag-tagged cyno LILRB4; H7K3 in PBS after 2 weeks at 40°C
Method: as §1, §2

[12] = biological target: T1, human LILRB4 expressed on cells; assay: FACS, CHO-K1 cells stably expressing human LILRB4; H7K3 in formulation buffer after 2 weeks at 40°C
Method: as §1, §2

[13] = biological target: T1, human LILRB4 expressed on cells; assay: FACS, CHO-K1 cells stably expressing human LILRB4; H7K3 in formulation buffer, T0
Method: as §1

[14] = biological target: T2, flag-tagged cynomolgus monkey LILRB4 …; assay: FACS, CHO-K1 cells stably expressing flag-tagged cyno LILRB4; H7K3 in PBS, T0
Method: as §1, §2

[15] = biological target: T1, human LILRB4 expressed on cells; assay: FACS, CHO-K1 cells stably expressing human LILRB4; H7K3 in PBS, T0
Method: as §1, §2

[16] = biological target: T1, human LILRB4 expressed on cells; assay: FACS, CHO-K1 cells stably expressing human LILRB4; H7K3 reference row of the formulation buffer stability table; H7K3 reference row of Table 3 (formulation buffer), not a T0 or 40° C. sample
Method: as §1

[17] = biological target: T2, flag-tagged cynomolgus monkey LILRB4 …; assay: FACS, CHO-K1 cells stably expressing flag-tagged cyno LILRB4; H7K3 in formulation buffer after 2 weeks at 40°C
Method: as §1, §2

[18] = biological target: T1, human LILRB4 expressed on cells; assay: FACS, CHO-stable cells expressing human LILRB4

B1: H7K3 (antibody, V domains shown)
VH: EVQLVESGGGLVQPGGSLRLSCAASGFSLSSSYWISWVRQAPGKGLEWIGSIDSGSVGITYYATWVKGRFTISRDNSKNTLYLQMNSLRAEDTAVYYCARHGDNWALDLWGQGTLVTVSS
VL: DIQMTQSPSTLSASVGDRVTITCRASQSINSWLAWYQQKPGKAPKLLIYKASTLASGVPSRFSGSGSGTEFTLTISSLQPDDFATYYCQHGYIRGDLDNVFGGGTKVEIK
notes: Humanized from rabbit antibody B4-193; also called humanized anti-LILRB4 antibody; WT
[1]
  EC50: 2.14 nM
[2]
  EC50: 6.05 nM
[3]
  EC50: 1.72 nM
[4]
  EC50: 1.19 nM
[5]
  EC50: 1.33 nM
[6]
  EC50: 0.696 nM
[7]
  EC50: 1.19 nM
[8]
  EC50: 0.895 nM
[9]
  EC50: 0.65 nM
[10]
  EC50: 0.883 nM
[11]
  EC50: 1.71 nM
[12]
  EC50: 1.42 nM
[13]
  EC50: 0.557 nM
[14]
  EC50: 1.21 nM
[15]
  EC50: 0.734 nM
[16]
  EC50: 0.65 nM
[17]
  EC50: 3.81 nM
[18]
  EC50: 0.543 nM
